Source: publication PMC4721543

Assays:
human VEGF-A165 (human) [1] = assay: fluorescence correlation spectroscopy; as the FCS series, but VEGF165 labelled with NT 647 (Table 1)
human VEGF-A165 (human) [2] = assay: fluorescence correlation spectroscopy; 1-5 nM ATTO 647N-labelled growth factor with 0.1 nM to 20 μM unlabelled CD44 ectodomain; at least 3 h at room temperature; PBS with 0.05% Tween-20; 20°C; diffusion times fitted with a 1:1 binding model
human VEGF-A165 (human) [3] = assay: MST; 10 nM NT-647-labelled HGF or VEGF165 with serial dilutions of the unlabelled partner; 22°C, PBS plus 1% BSA; Monolith NT.115

Kd (human VEGF-A165 (human) [1]): 200 nM
Kd (human VEGF-A165 (human) [2]): 65 nM
Kd (human VEGF-A165 (human) [3]): 51 nM
Substance: rat CD44v6 ectodomain, hexahistidine-tagged (from UniProt P26051 22-410) (domain or fragment)
